In one data set the target is Hfq (Pseudomonas aeruginosa PAO1, UniProt Q9HUM0 1-82). The data set can be described thus: MST; 30 nM labelled Hfq6, no Crc; ES buffer: 10 mM Tris pH 8.0, 10 mM KCl, 40 mM NaCl, 1 mM MgCl2; MST + 0.05% Tween-20, room temperature; EMSA + 25 ng tRNA per 10 ul, 37 C 15 min (Fig 6D); NMR. To be noted: protein: recombinant; tags: none stated; chain copies: 6; label: 5'-32P (EMSA); unlabelled (MST). On the technique in general: In EMSA bound probe runs differently from free probe, usually more slowly.

In data set [1] the target is T1, Hfq;Crc (Pseudomonas aeruginosa PAO1;Pseudomonas …, UniProt Q9HUM0;Q51380 1-82;1-259, |). Kind of data set: MST; 30 nM labelled Hfq6, RNA titrated, 360 nM Crc; ES buffer: 10 mM Tris pH 8.0, 10 mM KCl, 40 mM NaCl, 1 mM MgCl2; MST + 0.05% Tween-20, room temperature; EMSA + 25 ng tRNA per 10 ul, 37 C 15 min (Fig 6D); NMR. The note with it: protein: recombinant;recombinant; tags: none stated;His6-tag (N-terminal) removed with HRV14-3C; chain copies: 6;1; label: 5'-32P (EMSA); unlabelled (MST).

For data set [2], the target named is T1, Hfq;Crc. Kind of data set: co-IP (anti-Hfq); RNA-dependent Crc capture; ES buffer: 10 mM Tris pH 8.0, 10 mM KCl, 40 mM NaCl, 1 mM MgCl2; MST + 0.05% Tween-20, room temperature; EMSA + 25 ng tRNA per 10 ul, 37 C 15 min (Fig 6D); NMR. The note with it: protein: recombinant;recombinant; tags: none stated;His6-tag (N-terminal) removed with HRV14-3C; chain copies: 6;1.

The values that follow come from PMC5815094, “Interplay between the catabolite repression control protein Crc, Hfq and RNA in Hfq-dependent translational regulation in Pseudomonas aeruginosa”.

In the case of AAAAAUAACAACAAGAGG (ssRNA) [amiE6ARN], the Kd (as a rule, the free concentration of one partner at which half of the binding sites on the other are occupied at equilibrium, for simple one-to-one binding) with Hfq was determined as 43.2 ± 2.3 nM; with Hfq;Crc [1], 33.9 ± 1.7 nM.
Consider AAAAAAAAAAAAAAAAAAAAAAAAAAA (ssRNA) [poly(A)27], for which the binding result with Hfq;Crc [2] is reported as “binds”.
